B1: GST-PYL7 (receptor, Arabidopsis thaliana, UniProt Q1ECF1 1-211, looked up)
chain: MEMIGGDDTDTEMYGALVTAQSLRLRHLHHCRENQCTSVLVKYIQAPVHLVWSLVRRFDQPQKYKPFISRCTVNGDPEIGCLREVNVKSGLPATTSTERLEQLDDEEHILGINIIGGDHRLKNYSSILTVHPEMIDGRSGTMVMESFVVDVPQGNTKDDTCYFVESLIKCNLKSLACVSERLAAQDITNSIATFCNASNGYREKNHTETNL
notes: PYL7, PYR/PYL/RCAR family ABA receptor, Arabidopsis thaliana; cDNA fused to the C terminus of the GST tag in pCold-GST; source: E. coli DE3 cells, purified (Glutathione Sepharose 4B); not shown: GST, N-terminal, kept
B2: GST-PYL8 (receptor, Arabidopsis thaliana, UniProt Q9FGM1 1-188, looked up)
chain: MEANGIENLTNPNQEREFIRRHHKHELVDNQCSSTLVKHINAPVHIVWSLVRRFDQPQKYKPFISRCVVKGNMEIGTVREVDVKSGLPATRSTERLELLDDNEHILSIRIVGGDHRLKNYSSIISLHPETIEGRIGTLVIESFVVDVPEGNTKDETCYFVEALIKCNLKSLADISERLAVQDTTESRV
notes: PYL8, PYR/PYL/RCAR family ABA receptor, Arabidopsis thaliana; cDNA fused to the C terminus of the GST tag in pCold-GST; source: E. coli DE3 cells, purified (Glutathione Sepharose 4B); not shown: GST, N-terminal, kept
B3: GST-PYL9 (receptor, Arabidopsis thaliana, UniProt Q84MC7 1-187, looked up)
chain: MMDGVEGGTAMYGGLETVQYVRTHHQHLCRENQCTSALVKHIKAPLHLVWSLVRRFDQPQKYKPFVSRCTVIGDPEIGSLREVNVKSGLPATTSTERLELLDDEEHILGIKIIGGDHRLKNYSSILTVHPEIIEGRAGTMVIESFVVDVPQGNTKDETCYFVEALIRCNLKSLADVSERLASQDITQ
notes: PYL9, PYR/PYL/RCAR family ABA receptor, Arabidopsis thaliana; cDNA fused to the C terminus of the GST tag in pCold-GST between EcoRI and SalI; source: E. coli, purified (Glutathione Sepharose 4B, eluted with reduced glutathione); not shown: GST, N-terminal, kept
B4: GST-PYL5 (receptor, Arabidopsis thaliana, UniProt Q9FLB1 1-203, looked up)
chain: MRSPVQLQHGSDATNGFHTLQPHDQTDGPIKRVCLTRGMHVPEHVAMHHTHDVGPDQCCSSVVQMIHAPPESVWALVRRFDNPKVYKNFIRQCRIVQGDGLHVGDLREVMVVSGLPAVSSTERLEILDEERHVISFSVVGGDHRLKNYRSVTTLHASDDEGTVVVESYIVDVPPGNTEEETLSFVDTIVRCNLQSLARSTNRQ
notes: PYL5, PYR/PYL/RCAR family ABA receptor, Arabidopsis thaliana; cDNA fused to the C terminus of the GST tag in pCold-GST; source: E. coli DE3 cells, purified (Glutathione Sepharose 4B); not shown: GST, N-terminal, kept

Key:
MBP-PUB22 = biological target: T1, MBP-PUB22 (Arabidopsis thaliana, UniProt Q9SVC6 1-435); assay: pull-down; MBP-PUBs or MBP on amylose resin incubated with GST-PYLs for 1 h at room temperature in 20 mM Tris-HCl pH 7.2, 10 mM MgCl2, 2 mM DTT; washed five times; blot with anti-GST antibody; conditions: both partners purified
T1 construct: PUB22, plant U-box E3 ubiquitin ligase, Arabidopsis thaliana; Kept on the amylose resin for the pull-down; source: E. coli BL21 (DE3), purified (amylose resin); not shown: MBP, N-terminal, kept
T1 sequence (looked up): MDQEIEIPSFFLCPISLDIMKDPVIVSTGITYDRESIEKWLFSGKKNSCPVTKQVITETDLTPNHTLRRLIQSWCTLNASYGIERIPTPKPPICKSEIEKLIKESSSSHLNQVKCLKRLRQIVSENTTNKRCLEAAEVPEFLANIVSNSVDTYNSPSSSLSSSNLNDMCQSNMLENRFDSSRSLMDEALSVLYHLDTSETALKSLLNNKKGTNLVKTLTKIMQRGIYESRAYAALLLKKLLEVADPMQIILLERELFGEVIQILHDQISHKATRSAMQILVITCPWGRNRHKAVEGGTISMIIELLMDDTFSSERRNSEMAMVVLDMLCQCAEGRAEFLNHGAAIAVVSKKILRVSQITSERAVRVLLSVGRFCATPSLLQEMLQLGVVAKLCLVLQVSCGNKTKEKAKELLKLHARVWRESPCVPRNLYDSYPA

MBP-PUB23 = biological target: T2, MBP-PUB23 (Arabidopsis thaliana, UniProt Q84TG3 1-411); assay: as above; conditions: both partners purified
T2 construct: PUB23, plant U-box E3 ubiquitin ligase, Arabidopsis thaliana; Kept on the amylose resin for the pull-down; source: E. coli BL21 (DE3), purified (amylose resin); not shown: MBP, N-terminal, kept
T2 sequence (looked up): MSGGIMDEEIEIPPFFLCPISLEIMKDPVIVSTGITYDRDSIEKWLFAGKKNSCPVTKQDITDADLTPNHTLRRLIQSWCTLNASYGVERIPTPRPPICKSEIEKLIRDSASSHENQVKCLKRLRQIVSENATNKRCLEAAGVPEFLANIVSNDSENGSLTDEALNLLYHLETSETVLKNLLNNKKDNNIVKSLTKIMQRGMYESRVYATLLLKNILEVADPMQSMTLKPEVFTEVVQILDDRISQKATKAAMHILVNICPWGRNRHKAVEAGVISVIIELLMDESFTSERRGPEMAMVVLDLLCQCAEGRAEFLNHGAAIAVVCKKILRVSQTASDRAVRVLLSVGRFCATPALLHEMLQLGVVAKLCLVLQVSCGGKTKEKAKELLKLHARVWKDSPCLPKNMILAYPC

Row | Binder | binding result (MBP-PUB22) | binding result (MBP-PUB23)
1 | B1 | binds | –
2 | B2 | binds | –
3 | B3 | – | binds
4 | B4 | binds | –
